Test results taken from IntAct's records for PubMed 23178593.

B1: Aprataxin and PNK-like factor (Homo sapiens), Q8IW19 (parent)
chain: MSGGFELQPRDGGPRVALAPGETVIGRGPLLGITDKRVSRRHAILEVAGGQLRIKPIHTNPCFYQSSEKSQLLPLKPNLWCYLNPGDSFSLLVDKYIFRILSIPSEVEMQCTLRNSQVLDEDNILNETPKSPVINLPHETTGASQLEGSTEIAKTQMTPTNSVSFLGENRDCNKQQPILAERKRILPTWMLAEHLSDQNLSVPAISGGNVIQGSGKEEICKDKSQLNTTQQGRRQLISSGSSENTSAEQDTGEECKNTDQEESTISSKEMPQSFSAITLSNTEMNNIKTNAQRNKLPIEELGKVSKHKIATKRTPHKEDEAMSCSENCSSAQGDSLQDESQGSHSESSSNPSNPETLHAKATDSVLQGSEGNKVKRTSCMYGANCYRKNPVHFQHFSHPGDSDYGGVQIVGQDETDDRPECPYGPSCYRKNPQHKIEYRHNTLPVRNVLDEDNDNVGQPNEYDLNDSFLDDEEEDYEPTDEDSDWEPGKEDEEKEDVEELLKEAKRFMKRK

Variants of: B1
Settings: with xrcc5_human XRCC5, P13010
Sequence of xrcc5_human XRCC5, P13010 (P13010 whole entry): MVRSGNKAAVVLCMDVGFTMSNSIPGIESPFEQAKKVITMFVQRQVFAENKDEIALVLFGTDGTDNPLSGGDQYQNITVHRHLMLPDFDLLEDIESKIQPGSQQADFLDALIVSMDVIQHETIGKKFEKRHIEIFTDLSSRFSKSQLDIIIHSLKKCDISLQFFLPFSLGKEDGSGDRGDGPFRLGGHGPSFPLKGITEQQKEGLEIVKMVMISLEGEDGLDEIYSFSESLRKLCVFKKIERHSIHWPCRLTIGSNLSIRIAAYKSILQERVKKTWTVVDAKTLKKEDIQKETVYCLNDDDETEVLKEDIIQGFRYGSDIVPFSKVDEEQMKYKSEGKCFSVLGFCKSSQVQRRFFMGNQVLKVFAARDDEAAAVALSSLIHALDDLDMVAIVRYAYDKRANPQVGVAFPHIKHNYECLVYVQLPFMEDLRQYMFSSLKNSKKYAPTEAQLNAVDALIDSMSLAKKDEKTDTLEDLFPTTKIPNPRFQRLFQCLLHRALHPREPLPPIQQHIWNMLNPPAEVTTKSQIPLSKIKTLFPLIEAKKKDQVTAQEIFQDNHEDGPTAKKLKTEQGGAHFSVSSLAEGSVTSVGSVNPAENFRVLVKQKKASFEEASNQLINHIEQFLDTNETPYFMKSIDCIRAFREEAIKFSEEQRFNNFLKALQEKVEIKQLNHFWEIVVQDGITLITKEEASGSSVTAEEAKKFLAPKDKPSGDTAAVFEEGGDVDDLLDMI

effect of a mutation on the interaction	Variant
disrupting interaction	MSGGFELQPRDGGPRVALAPGETVIGRGPLLGITDKRVSRRHAILEVAGGQLRIKPIHTNPCFYQSSEKSQLLPLKPNLWCYLNPGDSFSLLVDKYIFRILSIPSEVEMQCTLRNSQVLDEDNILNETPKSPVINLPHETTGASQLEGSTEIAKTQMTPTNSVSFLGENRDCNKQQPILAERKRILPTGMLAEHLSDQNLSVPAISGGNVIQGSGKEEICKDKSQLNTTQQGRRQLISSGSSENTSAEQDTGEECKNTDQEESTISSKEMPQSFSAITLSNTEMNNIKTNAQRNKLPIEELGKVSKHKIATKRTPHKEDEAMSCSENCSSAQGDSLQDESQGSHSESSSNPSNPETLHAKATDSVLQGSEGNKVKRTSCMYGANCYRKNPVHFQHFSHPGDSDYGGVQIVGQDETDDRPECPYGPSCYRKNPQHKIEYRHNTLPVRNVLDEDNDNVGQPNEYDLNDSFLDDEEEDYEPTDEDSDWEPGKEDEEKEDVEELLKEAKRFMKRK [W189G]
